From patent publication US20170313770A1 (ORDER MADE MEDICAL RESEARCH, published 2017)

Target: IMI4C4a antibody (monoclonal antibody produced from Mouse-Mouse hybridoma IMI4C4a)
Experiment: competitive inhibition ELISA, peptide preincubated with IMI4C4a (333 pM), immobilized ICD4

Chain of IMI4C4a antibody (monoclonal antibody produced from Mouse-Mouse hybridoma IMI4C4a) (VH, as listed by the source, chain 1 of 2): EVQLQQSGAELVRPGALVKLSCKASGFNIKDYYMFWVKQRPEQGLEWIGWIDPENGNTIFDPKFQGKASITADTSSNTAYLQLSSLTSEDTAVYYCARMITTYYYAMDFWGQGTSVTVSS
Chain of IMI4C4a antibody (monoclonal antibody produced from Mouse-Mouse hybridoma IMI4C4a) (V domain, as listed by the source, chain 2 of 2): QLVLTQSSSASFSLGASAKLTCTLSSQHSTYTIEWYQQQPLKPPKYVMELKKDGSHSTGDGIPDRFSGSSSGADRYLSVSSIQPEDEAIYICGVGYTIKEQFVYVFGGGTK

Binder	molar ratio to the antibody without inhibition	molar ratio to the antibody at which an inhibitory effect started	molar ratio to the antibody giving significant inhibition
THCHETEESTIKDSTT [ICD4_227-242 (chemically synthesized peptide)]	> 10000 fold molar ratio relative to the antibody concentration	–	–
TQKAGLPSKNLTVSQNQ [ICD4_242-258 (chemically synthesized peptide)]	–	50 fold molar ratio relative to the antibody concentration	≥ 500 fold molar ratio relative to the antibody concentration
STIKDSTTQKAGLPSK [ICD4_235-250 (chemically synthesized peptide)]	> 10000 fold molar ratio relative to the antibody concentration	–	–
